{"source": "patent US6884866B2", "about": "“Bulk drying and the effects of inducing bubble nucleation” (Avant Immunotherapeutics, Inc., priority 2001, dated 2005)", "assay": "Urokinase activity after foam drying and storage", "format": "physicochemical", "protocol": "(7) Freeze-dried samples of Urokinase were rehydrated with 2 ml of 40 wt % sucrose. The solutions were then transferred to 20 ml sterilized glass vials for future preservation by drying. Before drying, the vials were covered with gray slotted rubber stoppers. The vials were dried inside a vacuum chamber. The vials were sitting on the surface of a stainless steel shelf inside the chamber. The shelf temperature was controlled by circulating ethylene glycol/water antifreeze at a controlled temperature inside the shelf. Before the vacuum was applied the shelf temperature was decreased to 5° C. Then the hydrostatic pressure inside the chamber was decreased to 0.5 Torr. Under such conditions, the suspension boiled for 30 min. […] Visually, under these experimental conditions, stable dry foams were formed inside the vials within 3 hours. After an additional 12 hours of drying at room temperature, the temperature was increased to 45° C. and maintained for an additional 24 hours. After that the chamber was filled with dry N2 gas, the rubber stoppers were pushed down and the vials were sealed with aluminum crimp seals.\nThe samples were assayed immediately after drying and after 30 days of storage at 40° C. After drying the Urokinase, activity was 93% of the initial activity. […]", "data": [{"substance": "Urokinase", "values": [{"measurement": "Urokinase activity, % of the initial activity", "setting": "after 30 days of storage at 40° C.", "value": 90, "unit": "%"}, {"measurement": "Urokinase activity, % of the initial activity", "setting": "immediately after drying (40 wt % sucrose, maximum 45° C.)", "value": 93, "unit": "%"}]}]}
